In the supplement of paper PMC9233669:
This sample holds only a part of the variants without activity.

Tests used:
biotinyl-Val-oxazolone = assay: self-aminoacylation, catalytic enhancement (BVO) (fold over background); higher = more active; k-Seq, kA / k0A0; sequences stand for … in GGGAAUGGAUCCACAUCUACGAAUUC…UUCACUGCAGACUUGACGAAGCUG
Method in brief: (§1)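 Working in 50 μL HEPES/NaCl/KCl/MgCl2/CaCl2 buffer with 5% acetonitrile at pH 6.9–7.0, mutagenized RNA pools (0.43 μM; 21-nt variable region) were reacted with 2–1250 μM of each biotinyl-aminoacyl-oxazolone for 90 minutes at room temperature. Streptavidin capture followed, with quantification by triplicate qPCR and Illumina sequencing. Catalytic enhancement is reported as median kA over the uncatalyzed rate, the low-activity peak of a bimodal Gaussian fit to the data.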

biotinyl-Leu-oxazolone = assay: self-aminoacylation, catalytic enhancement (BLO) (fold over background); higher = more active; k-Seq, kA / k0A0; sequences stand for … in GGGAAUGGAUCCACAUCUACGAAUUC…UUCACUGCAGACUUGACGAAGCUG
Method in brief: as §1

biotinyl-Phe-oxazolone = assay: self-aminoacylation, catalytic enhancement (BFO) (fold over background); higher = more active; k-Seq, kA / k0A0; sequences stand for … in GGGAAUGGAUCCACAUCUACGAAUUC…UUCACUGCAGACUUGACGAAGCUG
Method in brief: as §1

biotinyl-Met-oxazolone = assay: self-aminoacylation, catalytic enhancement (BMO) (fold over background); higher = more active; k-Seq, kA / k0A0; sequences stand for … in GGGAAUGGAUCCACAUCUACGAAUUC…UUCACUGCAGACUUGACGAAGCUG
Method in brief: as §1

biotinyl-Trp-oxazolone = assay: self-aminoacylation, catalytic enhancement (BWO) (fold over background); higher = more active; k-Seq, kA / k0A0; sequences stand for … in GGGAAUGGAUCCACAUCUACGAAUUC…UUCACUGCAGACUUGACGAAGCUG
Method in brief: as §1

biotinyl-Ile-oxazolone = assay: self-aminoacylation, catalytic enhancement (BIO) (fold over background); higher = more active; k-Seq, kA / k0A0; sequences stand for … in GGGAAUGGAUCCACAUCUACGAAUUC…UUCACUGCAGACUUGACGAAGCUG
Method in brief: as §1

Sequence	self-aminoacylation (biotinyl-Val-oxazolone)	self-aminoacylation (biotinyl-Leu-oxazolone)	self-aminoacylation (biotinyl-Phe-oxazolone)	self-aminoacylation (biotinyl-Met-oxazolone)	self-aminoacylation (biotinyl-Trp-oxazolone)	self-aminoacylation (biotinyl-Ile-oxazolone)
CCACACUUCAAUCAAUCGGUA [Fam1B.1 aminoacylation ribozyme variant]	0.849	0.609	0.825	0.749	0.739	0.79
AUUCACCUAUGUCAUCCGGUG [Fam2.2 aminoacylation ribozyme variant]	3.51	7.19	37.6	5.26	5.69	3.78
AUUACGCUGAUCAUCGAGUGA [Fam2.1 aminoacylation ribozyme variant]	3.36	5.8	15	5.61	6.11	3.16
AUUCACCUAGGUCAUCGGCUG [Fam2.2 aminoacylation ribozyme variant]	1.91	1.91	4.96	1.73	1.49	1.74
AAGAUUGCUAAUAGUCGCAAU [Fam3.1 aminoacylation ribozyme variant]	1.41	1.37	2.37	1.85	1.14	1.54
AUUUCCCUGGUCGUCGAGUGA [Fam2.1 aminoacylation ribozyme variant]	1.08	1.21	4.18	1.12	1.55	1.06
CCACACUUCAAGCAUUCGGUG [Fam1B.1 aminoacylation ribozyme variant]	5.97	11	68.5	8.89	7.88	5.54
AUUCACCUAGGUCAACGGAUG [Fam2.2 aminoacylation ribozyme variant]	0.726	0.549	0.356	0.667	0.259	0.758
AUUACCCUGGUCCGCGAGUGA [Fam2.1 aminoacylation ribozyme variant]	6.47	11.5	53.1	10.5	11.5	6.07
AUUACCCAAGUCAUCGAGUGA [Fam2.1 aminoacylation ribozyme variant]	4.46	9.5	42.4	8.57	9.59	4.5
AAGUUUGCUCAUAGUCGCAUG [Fam3.1 aminoacylation ribozyme variant]	1.04	0.903	0.909	0.893	0.856	1.05
AUUACCCGUGUCAUCGAGUGA [Fam2.1 aminoacylation ribozyme variant]	4.8	8.6	38.3	8.54	10.7	4.4
CCACACUUCAUGCAAUCGCUC [Fam1B.1 aminoacylation ribozyme variant]	1.06	1.1	0.603	1.36	0.588	0.99
AAUACCCUGCUCAUCGAGUGA [Fam2.1 aminoacylation ribozyme variant]	1.3	1.6	1.69	1.22	1.17	1.08
CCACACUUCAAGCAACCGGAC [Fam1B.1 aminoacylation ribozyme variant]	1.07	0.602	0.734	0.839	0.606	1.15
CUACUUCAAACACUCUGUCUG [Fam1A.1 aminoacylation ribozyme variant]	0.724	0.547	0.709	0.608	0.678	0.797
CCAUACUUAAAGCAAUCGGUC [Fam1B.1 aminoacylation ribozyme variant]	0.904	0.802	0.813	0.804	0.674	0.92
GUUCACCUAGGUCAUCGAGUG [Fam2.2 aminoacylation ribozyme variant]	6.89	15.7	27.6	11.4	6.52	8.09
CUUACCCUGGUCAUCGACUGA [Fam2.1 aminoacylation ribozyme variant]	0.739	0.833	0.459	0.673	1.31	1.1
AUUACCCUGGUCGUCGAGUGC [Fam2.1 aminoacylation ribozyme variant]	0.907	0.808	1.76	0.9	0.43	0.739
ACAUUUGCUAAUAGUCGCAAG [Fam3.1 aminoacylation ribozyme variant]	1.92	2.43	2.27	1.79	1.32	2.46
AUUCACCUAGAUCAUCGGGGG [Fam2.2 aminoacylation ribozyme variant]	1.91	2.08	8.71	2.29	2.13	1.79
GUUACUCUGGUCAUCGAGUGA [Fam2.1 aminoacylation ribozyme variant]	4.18	7.08	32.9	6.92	9.78	4.98
AUUACCCUGGUCAACGAGUCA [Fam2.1 aminoacylation ribozyme variant]	0.969	0.745	0.683	1.05	0.482	1.14
AGUACCCUGGUCAUCAAGUGA [Fam2.1 aminoacylation ribozyme variant]	1.75	2.35	3.2	2.28	2.89	1.61
AUUACCCUGGUCAUCUAGAGA [Fam2.1 aminoacylation ribozyme variant]	1.03	0.887	0.684	0.865	0.6	1.04

Sequence	self-aminoacylation (biotinyl-Val-oxazolone)	self-aminoacylation (biotinyl-Leu-oxazolone)	self-aminoacylation (biotinyl-Phe-oxazolone)	self-aminoacylation (biotinyl-Met-oxazolone)	self-aminoacylation (biotinyl-Trp-oxazolone)	self-aminoacylation (biotinyl-Ile-oxazolone)
CCAGACUUCAAGCAAUCGGUA [Fam1B.1 aminoacylation ribozyme variant]	1.4	1.16	1.22	1.66	1.75	1.41
AUUACCCUGGUGAUCCAGUGA [Fam2.1 aminoacylation ribozyme variant]	4.65	9.64	60.7	9.84	12.4	4.33
CUUCUUCAAACAAUCGGUCUU [Fam1A.1 aminoacylation ribozyme variant]	0.925	0.997	13.4	0.814	7.08	0.878
CCACAAUUCAAGCAAUCUGUC [Fam1B.1 aminoacylation ribozyme variant]	0.746	0.558	0.965	0.524	0.559	0.576
AUUCACCGAGGUCAUCCGGUG [Fam2.2 aminoacylation ribozyme variant]	8.04	12.4	80.2	9.07	10.1	7.31
AUCACCCUGGUCAGCGAGUGA [Fam2.1 aminoacylation ribozyme variant]	4.3	8.3	38.2	8.22	10.5	4.13
AAGUUUGCGAAUAGUCACAAG [Fam3.1 aminoacylation ribozyme variant]	0.962	0.774	1.66	0.933	0.863	1.17
AUGUUUGCUAAUGGUCGCAAG [Fam3.1 aminoacylation ribozyme variant]	0.934	1.02	1.63	0.875	1.13	1.16
AUUACCCGGGUCAUCGAGCGA [Fam2.1 aminoacylation ribozyme variant]	2.18	2.22	1.09	1.97	1.55	2.08
AAGCUUGCUAAUAGUCGCGAG [Fam3.1 aminoacylation ribozyme variant]	1.9	2.66	26.9	3.36	3.85	2.66
CUACUUCAAACAAUCGCUCUA [Fam1A.1 aminoacylation ribozyme variant]	0.948	0.642	0.778	1.05	0.736	0.862
ACUAACCUGGUCAUCGAGUGA [Fam2.1 aminoacylation ribozyme variant]	2.91	3.83	2.68	4.84	5.42	3.19
AUUCACCUAGGUCAUCGGCGG [Fam2.2 aminoacylation ribozyme variant]	3.27	5.14	17.9	4.11	2.74	3.21
CCACACUUCAAGCAAUCUGUG [Fam1B.1 aminoacylation ribozyme variant]	0.635	0.657	0.656	0.547	0.383	0.514
AUAACCCAGGUCAUCGAGUGA [Fam2.1 aminoacylation ribozyme variant]	2.95	4.72	19.3	5.5	6.13	2.67
AUUCCCCUAGAUCAUCGGGUG [Fam2.2 aminoacylation ribozyme variant]	6.64	11.9	75.1	9.42	9.85	7.3
AAGCUUGCGAAUAGUCGCAAG [Fam3.1 aminoacylation ribozyme variant]	1.64	2.2	2.7	2.12	2.32	2.39
AUUCACCUAGGUUAUUGGGUG [Fam2.2 aminoacylation ribozyme variant]	3.15	7.19	45	5.84	6.1	3.48
AUUACCCUGGACAUCGAGGGA [Fam2.1 aminoacylation ribozyme variant]	1.19	1.46	1.26	2.18	2.17	1.53
CUACUUCAAACAAGCUGUCUG [Fam1A.1 aminoacylation ribozyme variant]	0.734	0.795	0.642	0.7	0.356	0.733
GUACUUCAAACAAACGGUCUG [Fam1A.1 aminoacylation ribozyme variant]	1.15	1.31	1.72	1.22	1.15	1.43
CCAUACUUCAAGCAAUGGGUC [Fam1B.1 aminoacylation ribozyme variant]	1	0.926	0.918	0.972	0.627	1.04
CCACACUUCGAGCAUUCGGUC [Fam1B.1 aminoacylation ribozyme variant]	2.2	1.72	1.18	1.67	1.54	1.97
CCACACUUCACGCAACCGGUC [Fam1B.1 aminoacylation ribozyme variant]	1.55	1.55	0.978	1.21	0.831	1.24
CUCCUUCAAACAAUCCGUCUG [Fam1A.1 aminoacylation ribozyme variant]	0.949	0.659	1.24	0.657	1.25	1.03
